Consider three molecules from patent US20250009876A1 (H LUNDBECK A S, published 2025).

Experiment [1] addresses T1, PACAP27 (Pituitary Adenylate Cyclase-Activating Polypeptide, 27 amino acids) (human, the C-terminal leucine is amidated).
T1 construct: also called human PACAP27
T1 peptide: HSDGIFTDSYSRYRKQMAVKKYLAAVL
The experiment in a line: inhibition of 0.1 nM 125I-PACAP27 binding to membranes with human PAC1-R long isoform, filter binding. As to the method:
To identify antibodies that block PACAP27 binding to PAC1-R, antibodies at an initial concentration of 30 nM were diluted in incubation buffer (50 mM Hepes pH 7.4, 1 mM CaCl₂, 5 mM MgCl₂, 0.2% BSA) and serial 1:3 dilutions were performed. Antibody dilutions (30 nM, 10 nM, 3 nM, 1 nM, 0.3 nM, 0.1 nM, 0.03 nM, 0.01 nM, 0.003 nM and 0.001 nM) were then mixed and pre-incubated at 25° C. for 30 minutes with 0.1 nM of ¹²⁵I-labelled PACAP27 in incubation buffer. The antibody: ¹²⁵I-labelled PACAP27 mixture was then added to 0.5 μg aliquots of cell membranes derived from Chem-1 cells expressing human recombinant PAC1-R long isoform in incubation buffer. The mixture was then incubated for 1 hour at 25° C. Following incubation, the samples were filtered and washed. Afterward, the filters were counted to quantitate ¹²⁵I-labelled PACAP27. As an experimental control, non-specific binding to the cell membranes was estimated using 0.1 μM of […] PACAP27.

Experiment [2] concerns the target T2, VIP (Vasoactive Intestinal Peptide) (human).
T2 construct: also called human VIP
T2 peptide: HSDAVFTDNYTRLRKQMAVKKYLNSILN
Nature of the experiment: SPR (ProteOn XPR36), antibody amine-coupled, peptide analyte, 1:1 Langmuir fit.

Experiment [3] addresses T3, PACAP38 (Pituitary Adenylate Cyclase-Activating Polypeptide, 38 amino acids) (human, not fully specified; the C-terminal lysine is amidated).
T3 construct: In the HTRF and PC-12 cell assays the peptide was N-terminally or C-terminally biotinylated; unlabelled in SPR; also called human PACAP38; huPACAP (1-38)
T3 peptide: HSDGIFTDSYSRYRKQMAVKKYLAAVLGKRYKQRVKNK
The experiment in a line: inhibition of 30 nM biotinylated PACAP38 binding to PAC1-R-expressing PC-12 cells, Eu-streptavidin TRF. Here is the method:
(§1) To identify antibodies that block PACAP38 binding to PAC1-R-expressing cells, adherent PC-12 cells (ATCC, Manassas, VA) expressing PAC1-R were used in a Europium-based PAC1-R-expressing cells binding assay. Antibody solutions were incubated with N-terminal biotinylated PACAP38 at 10× the final concentration (100 nM or 30 nM) for 1 hr, then added to PC-12 cells that were plated 24 hrs prior in black clear bottom 96 well plates (COSTAR™, Corning Incorporated, Corning, NY) and further incubated for 1 hr at room temperature. After three washes, the cells were incubated with 20 μl Europium-labeled streptavidin (PerkinElmer, Waltham, MA) for 1 hr at room temperature. Cells were washed three times, then 20 μl DELFIA® Enhancement solution (PerkinElmer, Waltham, MA) was added to each well and incubated for 15 minutes with gentle shaking. Plates were read (Time Resolved Fluorescence (“TRF”)) on SPECTRAMAX® (Molecular Devices, Sunnyvale, CA) plate reader.
(§2) FIGS. 14A-14H are representative of the inhibition curves obtained by this method (results are shown for Ab10, Ab20, Ab21, Ab1.H, Ab10.H, Ab21.H, Ab22, and Ab23, respectively) wherein the PAC1-R expressing cells were PC-12 cells.

Experiment [4] deals with T3, PACAP38 (Pituitary Adenylate …). The experiment in a line: inhibition of 100 nM biotinylated PACAP38 binding to PAC1-R-expressing PC-12 cells, Eu-streptavidin TRF. Here is the method:
as §1, §2

The target is the same in experiment [5]. Nature of the experiment: HTRF binding assay, antibody dilution series on 35 nM biotinylated PACAP38. As to the method:
In parallel, 10 μl of an antibody dilution series (highest final concentration of 100 nM) were incubated with 10 μl of N-terminal or C-terminal biotinylated PACAP38 (35 nM final) alone, or in combination with either PACAP27 (350 nM final) or VIP (350 nM final), i.e., 10× PACAP27 or 10× VIP, respectively, in a HTRF plate. 20 μl of Eu³⁺ cryptate labeled anti-hu Fc donor and 20 μl of d2-labeled streptavidin acceptor were added to each well and incubated for 1 hour at room temperature. Fluorescence was measured at 620 and 665 nm with a delay of 300 usec.
EC₅₀ values, i.e. the concentration of an antibody that yields a response halfway between the baseline and the maximum value within a specified time period, were computed for each antibody based upon their binding curves and are shown in Table 1 below. […] A humanized form of antibody Ab1 identified by an appended “.H”, i.e., Ab1.H also bound PACAP38 with high affinity.
(TR-FRET usually uses a lanthanide donor and a delayed reading to cut background.)

The target of experiment [6] is T2, VIP (Vasoactive Intestinal Peptide). Nature of the experiment: SPR (ProteOn XPR36), antibody amine-coupled, peptide analyte, 1:1 Langmuir fit; SPR, direct binding of VIP to the antibody; weak, KD 2.8E-07 M.
For experiment [7] the target is unchanged. The experiment in a line: SPR (ProteOn XPR36), antibody amine-coupled, peptide analyte, 1:1 Langmuir fit; SPR, direct binding of VIP to the antibody; weak, KD 1.1E-06 M.

B1: Ab10.H (antibody, human IgG1, kappa, N297A)
heavy: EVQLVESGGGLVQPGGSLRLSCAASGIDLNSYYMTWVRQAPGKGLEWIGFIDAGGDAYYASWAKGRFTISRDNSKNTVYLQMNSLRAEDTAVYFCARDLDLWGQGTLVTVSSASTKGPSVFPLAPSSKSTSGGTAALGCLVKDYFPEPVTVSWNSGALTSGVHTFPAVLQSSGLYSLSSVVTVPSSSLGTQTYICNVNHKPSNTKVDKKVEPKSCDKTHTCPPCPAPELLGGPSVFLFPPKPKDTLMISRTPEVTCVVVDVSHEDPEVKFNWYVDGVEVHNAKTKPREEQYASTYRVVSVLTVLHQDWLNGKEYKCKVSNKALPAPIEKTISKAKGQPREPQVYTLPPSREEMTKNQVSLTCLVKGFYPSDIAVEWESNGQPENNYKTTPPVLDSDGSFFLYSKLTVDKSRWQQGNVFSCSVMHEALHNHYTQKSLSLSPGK
light: DAQLTQSPSTLSASVGDRVTITCQSSESVYGNYLAWFQQKPGKAPKFLIYEASKLESGVPSRFSGSGSGTEFTLTISSLQPDDFATYYCAGGDISEGVAFGGGTKVEIKRTVAAPSVFIFPPSDEQLKSGTASVVCLLNNFYPREAKVQWKVDNALQSGNSQESVTEQDSKDSTYSLSSTLTLSKADYEKHKVYACEVTHQGLSSPVTKSFNRGEC
notes: Full-length humanized variant of Ab10
What is called IC50 is the concentration at which inhibition is half-maximal. The term Kd denotes the equilibrium constant for the complex coming apart. Read a high Kd as lower affinity. By koff is commonly meant a measure of how fast the partners let go of each other. A lower koff goes with a long-lived complex. For orientation: kon means the second-order rate constant of association. Higher therefore signals fast association. B1 yielded an IC50 in experiment [1] of 0.22 nM. Besides, in experiment [2], the Kd was determined as 100 nM, the koff came to 0.039 s⁻¹ and the on-rate constant (kon) was 380000 M⁻¹ s⁻¹. The same molecule had an IC50 in experiment [3] of 14.5 nM.

B2: Ab10 (antibody, human IgG1, kappa, N297A, V domains shown)
VH: QSVEESGGRLVTPGTPLTLTCTVSGIDLNSYYMTWVRQAPGKGLEWIGFIDAGGDAYYASWAKGRFTISKTSTTVDLKITSPTTEDTATYFCARDLDLWGQGTLVTVSS
VL: AAVLTQTPSPVSAAVGGTVTINCQSSESVYGNYLAWFQQKPGQPPKLLIYEASKLESGVPSRFSGSGSGTQFTLTISDLQCDDAATYYCAGGDISEGVAFGGGTEVVVKR
notes: Full-length anti-PACAP antibody; rabbit variable regions cloned onto human constant regions (rabbit/human chimeric), expressed in HEK-293
As a reminder, the EC50 is the concentration that produces a half-maximal response. As to B2, the IC50 in experiment [4] was found to be 17.8 nM. Further, the EC50 in experiment [5] stood at 0.36 nM. For the same molecule, in experiment [6], the affinity, expressed as Kd, was 280 nM; the koff turned out to be 0.01 s⁻¹; the kon is 37000 M⁻¹ s⁻¹.

B3: Ab20 (antibody, human IgG1, kappa, N297A, V domains shown)
VH: QSVEESGGRLVTPGTPLTLTCTVSGIDLSSYYMSWVRQAPGKGLEWIGFIDTDGSAYYATWAKGRFTISKTSTTVDLKITSPTTEDTATYFCARDLDLWGPGTLVTVSS
VL: AAVLTQTPSPVSAAVGGTVSISCQSSESVYSNYLAWFQQKPGQPPKFLIYEASKLASGVPSRFKGSGSGTQFTLTISDVQCDDAGTYYCAGGYSSEGVAFGGGTEVVVKR
notes: Full-length anti-PACAP antibody; rabbit/human chimeric
Molecule B3 registered an IC50 in experiment [4] of 32.7 nM. For the same molecule, in experiment [7], the Kd worked out at 1100 nM, the koff was 0.48 s⁻¹ and the kon came to 450000 M⁻¹ s⁻¹. For the same molecule, the EC50 in experiment [5] was 0.38 nM.
